The source of these data is publication PMC6385209.

This data set in a line: mouse vaccination, whole-cell ELISA for CPS14-specific IgG. The settings on record: glycan gained; control: unglycosylated ComP. (ELISA stands for enzyme-linked immunosorbent assay.)

Regarding ComP: CPS14-ComP bioconjugate, the “other: immunogenicity” value was “increases”.
